Where two headings read alike, the source gives them in different places.
Experiments:
[1] = tested on: living human neutrophils; assay: Live microscopy of neutrophils infected with Shigella flexneri; assay type: cell-based; settings: live cells
Method: Neutrophil infection. Human purified neutrophils were cultured in glass-bottom dishes (Mattek) for live fluorescent microscopy in a RMPI 1640 (Life Technologies) culture medium supplemented with 10% of heat inactivated Human Serum (Sigma-Aldrich). Neutrophils (5.10^5 cell/mL in 2 mL) were infected with exponentially-grown Shigella flexneri 5a pGFP at a Multiplicity Of Infection (MOI) 20 in RMPI 1640 (Life Technologies) culture medium supplemented with 10 mM Hepes (Life Technologies) at 37° C. Infected neutrophils were centrifuged at 2000 rpm for 10 min prior imaging.
Live epifluorescence microscopy. Viable neutrophils infected with S. flexneri pGFP were imaged on a Definite focus live microscope (Zeiss) equipped with a temperature control chamber (37° C.) and a 63× oil immersion objective. Images were acquired every 60 s. Z-stack images were taken with […] step-size increments. Obtained Z-stack images were processed with Fiji software to generate a Movie and the corresponding extracted images are shown in FIG. 16a.

[2] = tested on: human colonic mucus; assay: Fluorescent labelling of human colonic mucus layer; assay type: binding; settings: 1 μg/mL
Method: (§1) Colon explant surgical collection. In summary, human colon segments (ascending, descending, and sigmoid colon) were obtained from fully informed patients undergoing surgery for colon carcinoma and were analyzed anonymously. Patient written consent was obtained, according to the French bioethics law. None of the patients had undergone radiotherapy or chemotherapy. According to the pathologist's examination rules for the longitudinally bisected colon, a healthy segment of tissue, which was distant from the tumor region and devoid of metastatic cells, was removed. Tissues were processed according to the French Government guidelines for research on human tissues and the French Bioethics Act with the authorization no RBM 2009-50.
Fixation and staining procedures. For microscopy studies, purified or cultured cells and polymerized lactoferrin were resuspended onto 24-well plates containing 12 mm coverslips in RMPI 1640+10 mM Hepes (when cultured in the autologous plasma) and centrifuged at 300×g for 10 min. Culture media were removed and cells were fixed in 4% Paraformaldehyde (PFA) for two hours. Fixed cells were washed three times in PBS+0.1% saponin (Sigma-Aldrich), prior immunolabeling with primary antibodies in the same buffer for 1 hour (Triton 0.1% can alternatively be used for cell permeabilization). After three additional washes in PBS+0.1% saponin, secondary antibodies and fluorescent markers were incubated for one hour. […]
(§2) Antibodies, fluorescent markers. For immunofluorescence assay, lactoferrin was detected with a mouse anti-lactoferrin primary monoclonal antibody (Hycult biotech, clone 265-1K1, 1:50 dilution) and an anti-mouse-FITC conjugated secondary antibody (1:1000). Nuclei were detected with DAPI (Life Technologies), Lyophilized MUB40 peptides (MUB40#1 (SEQ ID NO: 3)-Cy5, MUB40#2 (SEQ ID NO: 4)-Cy5, MUB40#3 (SEQ ID NO: 5)-Cy5, MUB40#4 (SEQ ID NO: 6)-Cy5, MUB40#1 (SEQ ID NO: 3)-Dylight, RI-MUB40 (SEQ ID NO: 2)-Cy5, and RI-MUB40 (SEQ ID NO: 2)-Biotin) were solubilized in a phosphate buffer pH8 at a 1 mg/mL concentration and used at a 1:1000 dilution. […]

[3] = target: trypsin (Sus scrofa, UniProt P00761); settings: trypsin digestion, 37°C, pH8, followed up to 24 h
Chain of trypsin (P00761 9-231): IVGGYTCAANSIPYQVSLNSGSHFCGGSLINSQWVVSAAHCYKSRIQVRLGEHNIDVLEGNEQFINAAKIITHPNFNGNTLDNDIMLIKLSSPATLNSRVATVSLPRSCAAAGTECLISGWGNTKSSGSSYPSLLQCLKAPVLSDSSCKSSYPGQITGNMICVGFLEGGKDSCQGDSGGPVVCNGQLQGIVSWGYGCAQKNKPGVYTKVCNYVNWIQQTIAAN
Method: Trypsin proteolysis. MUB40 (SEQ ID NO: 3)-Cy5 and RI-MUB40 (SEQ ID NO: 2)-Cy5 were dissolved in 50 mM ammonium bicarbonate, pH 8. Prior to digestion and owing to the propensity of maleimide derivatives to undergo ring-opening in a basic environment (Fontaine et al., 2015), we incubated both peptides at 37° C. overnight. Ring-opening completion was checked before trypsin addition. […] Lyophilized trypsin (Thermo scientific) was reconstituted using 50 mM acetic acid, diluted with 50 mM ammonium bicarbonate and added to the peptide solution so as to obtain a final peptide concentration of 0.25 mg/mL and a protease to protein ratio of 1:20 (w/w). Samples were directly incubated on the injection sampler thermostated at 37° c. HPLC and LC-MS analyses were performed as previously described above, applying a 15% to 40% linear gradient of acetonitrile in 10 mM ammonium acetate over 20 minutes.
Hydrolysis experiments were done in solution at 37° c., pH8 and monitored by HPLC by measuring the peak area of the remaining intact peptides.

[4] = tested on: colonic mucinous carcinoma; assay: Mucinous carcinoma immunofluorescent staining; parameters: species or system human; settings: together with anti-Muc2 antibody, 1 μg/mL
Method: FIG. 3. Mucinous carcinoma immunofluorescent staining with MUB40 #1 (SEQ ID NO: 3)-Cy5 (MUB40-Cy5) and anti-Muc2 antibody (with a secondary antibody conjugated with FITC).
Muc2 was stained with an anti-Mucin2 antibody (green). Tissue was additionally stained with MUB40-Cy5 (1 μg/mL, magenta). DNA was stained with Dapi (blue).

[5] = Analytical gel filtration (size exclusion chromatography); assay type: physicochemical; settings: for relative masses estimated from standard proteins' elution volume: 10 μg/ml in 20 mM phosphate buffer; for relative masses estimated from standard proteins' elution volume / experimental Mr: 150 mM NaCl, pH7.4; for experimental Mr: 20 mM phosphate buffer; for oligomeric organization: phosphate buffer, vs theoretical MW
Method: Size Exclusion Chromatography. Gel filtration was performed using an Agilent 1100 system (Agilent Technologies; Palo Alto, Calif., USA) and monitored by absorbance at 280 nm. MUB40 peptides were solubilized in the gel filtration buffer (20 mM phosphate buffer, 150 mM NaCl, pH7.4) at a concentration of 10 μg/ml, 100 μg/ml, or 1 mg/ml), separately injected on a Yarra™ 3μ SEC-2000 300×7.8 mm column (Phenomenex, Le Pecq, France), and eluted at a 0.5 ml/min flow rate. The column was calibrated with a mixture of standards proteins (ribonuclease A, 13.7 kDa; carbonic anhydrase 29 kDa; ovalbumin 44 kDa; GE Healthcare) complemented with a custom synthetic peptide of our own library (peptide x, 5.1 kDa; Institut Pasteur). The logarithm of the molecular weights were plotted versus the corresponding partition coefficients (Kay=(Ve−Vo)/(Vc−Vo); Ve, elution volume; Vo, void volume; Vc, geometric column volume), giving log(Mr)=2,3108−2,2361Kav as a calibration curve equation.

[6] = tested on: Colonic goblet cell granules; assay: Fluorescent labelling of colonic goblet cell granules on fixed slides; assay type: cell-based, human; settings: 1 μg/mL
Method: as §1, §2

[7] = Coïc et al., 2012; cited from earlier work

CC[C@@H](C)[C@@H](NC(=O)[C@@H](CCCCN)NC(=O)[C@@H](CCCCN)NC(=O)[C@@H](Cc1ccccc1)NC(=O)[C@@H](CCC(=O)O)NC(=O)CNC(=O)[C@@H](CC(=O)O)NC(=O)CNC(=O)[C@@H](Cc1ccc(O)cc1)NC(=O)[C@@H](CCC(=O)O)NC(=O)[C@@H](CC(C)C)NC(=O)[C@@H](Cc1ccccc1)NC(=O)[C@@H](CCCCN)NC(=O)[C@@H](CC(=O)O)NC(=O)[C@@H](CC(N)=O)NC(=O)[C@@H](Cc1ccccc1)NC(=O)[C@H]1CCCN1C(=O)[C@@H](C)NC(=O)CNC(=O)[C@@H](CCC(=O)O)NC(=O)[C@@H](CCCCN)NC(=O)[C@@H](Cc1ccccc1)NC(=O)[C@@H](CC(=O)O)NC(=O)[C@@H](CC(N)=O)NC(=O)[C@@H](CC(=O)O)NC(=O)[C@@H](CC(=O)O)NC(=O)[C@H](NC(=O)[C@@H](CC(N)=O)NC(=O)[C@@H](CC(=O)O)NC(=O)[C@@H](CCC(N)=O)NC(=O)[C@@H](Cc1ccccc1)NC(=O)[C@@H](Cc1ccc(O)cc1)NC(=O)[C@H](NC(=O)[C@H](NC(=O)[C@H](NC(=O)[C@@H](Cc1ccccc1)NC(=O)[C@@H](CS)NC(C)=O)[C@H](C)CC)C(C)C)[C@H](C)O)[C@H](C)O)C(=O)NCC(=O)N[C@H](CCC(=O)O)C(=O)N[C@H](C)C(=O)N[C@@H](C(N)=O)[C@H](C)O [RI-MUB40]
crossing of plasma membrane of living cells [1]: do not cross plasma membranes | labelling of / binding to human colonic mucus [2]: validated

MUB40#1: 40-amino acid L-peptide, MUB70 C-terminal part, with N-ter added cysteine; L counterpart of RI-MUB40 (CTAEGIKKFEGDGYELFKDNFPAGEKFDNDDTNDQFYTVIF; MUB40-1 probe with Cysteine at N-terminal extremity)
degradation by trypsin (in words) ([3]; listed as MUB40): rapidly degraded | degradation by trypsin (in words) ([3]; listed as MUB40 #1): almost completely degraded within 3 h | labelling of colonic mucinous carcinoma [4]: similarly labelled | relative masses estimated from standard proteins' elution volume [5]: 15.9 | experimental Mr [5]: 15.9 kDa | oligomeric organization [5]: trimer

MUB40#2: overlapping 40-amino acid peptide covering the MUB70 sequence (CGYTDETIPYSTAEGIKKFEGDGYELFKDNFPAGEKFDNDD; MUB40-2 probe with Cysteine at N-terminal extremity)
relative masses estimated from standard proteins' elution volume [5]: 22.0 | experimental Mr [5]: 22.0 kDa | oligomeric organization [5]: tetramers

MUB40#3: overlapping 40-amino acid peptide covering the MUB70 sequence (CDQMLRQDDLDGYTDETIPYSTAEGIKKFEGDGYELFKDNF; MUB40-3 probe with Cysteine at N terminal extremity)
relative masses estimated from standard proteins' elution volume [5]: 20.5 | experimental Mr [5]: 20.5 kDa | oligomeric organization [5]: tetramers

MUB40#4: overlapping 40-amino acid peptide covering the MUB70 sequence (CVHVQYIDGETDQMLRQDDLDGYTDETIPYSTAEGIKKFEG; MUB40-4 probe with Cysteine at N terminal extremity)
relative masses estimated from standard proteins' elution volume [5]: 20.4 | experimental Mr [5]: 20.4 kDa | oligomeric organization [5]: tetramers

B1: MUB70-Cy5: MUB70 (SEQ ID NO: 11) conjugated to Cy5 (conjugate, listed as Lactobacillus reuteri)
chain: VHVQYIDGETDQMLRQDDLDGYTDETIPYSTAEGIKKFEGDGYELFKDNFPAGEKFDNDDTNDQFYTVIF
modifications: also: conjugated to Cy5 (site not given here)
labelling of colonic goblet cell granules [6]: not the case

B2: MUB70: 70 AA peptidic marker of human colonic mucus from L. reuteri MUcus Binding Associated Domains (peptide, listed as Lactobacillus reuteri)
chain: B1 chain
oligomeric organization [7]: trimer

From US11472844B2, “Peptidomimetics, method of synthesis and uses thereof” (priority 2017, dated 2022)
